Results as given in article PMC4608048.

Target: UbcH10^LR (as used in surface plasmon resonance) (human)
Test: SPR

Substance: APC/C^Cdh1.Hsl1 (from UniProt Q9H1A4;Q9UJX6;P30260;Q9UJX5;Q9UJX4;Q13042;Q9UJX3;Q9UJX2;Q9UM13;Q9NYG5;Q8NHZ8;Q9BS18;P60006;Q96DE5;Q9UM11-2;P34244) (complex)
- K^kin d (fast): 24 nM
- K^kin d (slow): 23 nM
- koff (fast): 0.04 s⁻¹
- koff (slow): 0.0046 s⁻¹
- kon (fast): 1.7e+06 M⁻¹ s⁻¹
- kon (slow): 170000 M⁻¹ s⁻¹
